B1: CE115HA000 A56Y one-arm antibody (antibody, human IgG1, kappa, L234A L235A, N297A, name in Kabat numbering)
heavy: QVQLVESGGGVVQPGRSLRLSCAASGFTFSNAWMHWVRQAPGKGLEWVAQIKAKSNNYYTYYAESVKGRFTISRDDSKNSLYLQMNSLKTEDTAVYYCRYVHYGAYYGVDAWGQGTTVTVSSASTKGPSVFPLAPSSKSTSGGTAALGCLVKDYFPEPVTVSWNSGALTSGVHTFPAVLQSSGLYSLSSVVTVPSSSLGTQTYICNVNHKPSNTKVDKKVEPKSCDKTHTCPPCPAPEAAGGPSVFLFPPKPKDTLMISRTPEVTCVVVDVSHEDPEVKFNWYVDGVEVHNAKTKPREEQYASTYRVVSVLTVLHQDWLNGKEYKCKVSNKALPAPIEKTISKAKGQPREPQVYTLPPSRCELTKNQVSLSCAVKGFYPSDIAVEWESNGQPENNYKTTPPVLDSDGSFFLVSKLTVDKSRWQQGNVFSCSVMHEALHNHYTQKSLSLSPDYKDDDDK
chain: EPKSSDKTHTCPPCPAPELLGGPSVFLFPPKPKDTLMISRTPEVTCVVVDVSHEDPEVKFNWYVDGVEVHNAKTKPREEQYNSTYRVVSVLTVLHQDWLNGKEYKCKVSNKALPAPIEKTISKAKGQPREPQVCTLPPSRDELTKNQVSLWCLVKGFYPSDIAVEWESNGQPENNYKTTPPVLDSDGSFFLYSKLTVDKSRWQQGNVFSCSVMHEALHNRYTQKSLSLSP
light: DIVMTQSPLSLPVTPGEPASISCRSSQSLVHSNRNTYLHWYQQKPGQAPRLLIYKVSNRFSGVPDRFSGSGSGTDFTLKISRVEAEDVGVYYCGQGTQVPYTFGQGTKLEIKRTVAAPSVFIFPPSDEQLKSGTASVVCLLNNFYPREAKVQWKVDNALQSGNSQESVTEQDSKDSTYSLSSTLTLSKADYEKHKVYACEVTHQGLSSPVTKSFNRGEC
B2: CE115HA000 A99K one-arm antibody (antibody, human IgG1, kappa, L234A L235A, N297A, name in Kabat numbering)
heavy: QVQLVESGGGVVQPGRSLRLSCAASGFTFSNAWMHWVRQAPGKGLEWVAQIKAKSNNYATYYAESVKGRFTISRDDSKNSLYLQMNSLKTEDTAVYYCRYVHYGKYYGVDAWGQGTTVTVSSASTKGPSVFPLAPSSKSTSGGTAALGCLVKDYFPEPVTVSWNSGALTSGVHTFPAVLQSSGLYSLSSVVTVPSSSLGTQTYICNVNHKPSNTKVDKKVEPKSCDKTHTCPPCPAPEAAGGPSVFLFPPKPKDTLMISRTPEVTCVVVDVSHEDPEVKFNWYVDGVEVHNAKTKPREEQYASTYRVVSVLTVLHQDWLNGKEYKCKVSNKALPAPIEKTISKAKGQPREPQVYTLPPSRCELTKNQVSLSCAVKGFYPSDIAVEWESNGQPENNYKTTPPVLDSDGSFFLVSKLTVDKSRWQQGNVFSCSVMHEALHNHYTQKSLSLSPDYKDDDDK
chain: EPKSSDKTHTCPPCPAPELLGGPSVFLFPPKPKDTLMISRTPEVTCVVVDVSHEDPEVKFNWYVDGVEVHNAKTKPREEQYNSTYRVVSVLTVLHQDWLNGKEYKCKVSNKALPAPIEKTISKAKGQPREPQVCTLPPSRDELTKNQVSLWCLVKGFYPSDIAVEWESNGQPENNYKTTPPVLDSDGSFFLYSKLTVDKSRWQQGNVFSCSVMHEALHNRYTQKSLSLSP
light: DIVMTQSPLSLPVTPGEPASISCRSSQSLVHSNRNTYLHWYQQKPGQAPRLLIYKVSNRFSGVPDRFSGSGSGTDFTLKISRVEAEDVGVYYCGQGTQVPYTFGQGTKLEIKRTVAAPSVFIFPPSDEQLKSGTASVVCLLNNFYPREAKVQWKVDNALQSGNSQESVTEQDSKDSTYSLSSTLTLSKADYEKHKVYACEVTHQGLSSPVTKSFNRGEC
B3: CE115HA000 A60E one-arm antibody (antibody, human IgG1, kappa, L234A L235A, N297A, name in Kabat numbering)
heavy: QVQLVESGGGVVQPGRSLRLSCAASGFTFSNAWMHWVRQAPGKGLEWVAQIKAKSNNYATYYEESVKGRFTISRDDSKNSLYLQMNSLKTEDTAVYYCRYVHYGAYYGVDAWGQGTTVTVSSASTKGPSVFPLAPSSKSTSGGTAALGCLVKDYFPEPVTVSWNSGALTSGVHTFPAVLQSSGLYSLSSVVTVPSSSLGTQTYICNVNHKPSNTKVDKKVEPKSCDKTHTCPPCPAPEAAGGPSVFLFPPKPKDTLMISRTPEVTCVVVDVSHEDPEVKFNWYVDGVEVHNAKTKPREEQYASTYRVVSVLTVLHQDWLNGKEYKCKVSNKALPAPIEKTISKAKGQPREPQVYTLPPSRCELTKNQVSLSCAVKGFYPSDIAVEWESNGQPENNYKTTPPVLDSDGSFFLVSKLTVDKSRWQQGNVFSCSVMHEALHNHYTQKSLSLSPDYKDDDDK
chain: EPKSSDKTHTCPPCPAPELLGGPSVFLFPPKPKDTLMISRTPEVTCVVVDVSHEDPEVKFNWYVDGVEVHNAKTKPREEQYNSTYRVVSVLTVLHQDWLNGKEYKCKVSNKALPAPIEKTISKAKGQPREPQVCTLPPSRDELTKNQVSLWCLVKGFYPSDIAVEWESNGQPENNYKTTPPVLDSDGSFFLYSKLTVDKSRWQQGNVFSCSVMHEALHNRYTQKSLSLSP
light: DIVMTQSPLSLPVTPGEPASISCRSSQSLVHSNRNTYLHWYQQKPGQAPRLLIYKVSNRFSGVPDRFSGSGSGTDFTLKISRVEAEDVGVYYCGQGTQVPYTFGQGTKLEIKRTVAAPSVFIFPPSDEQLKSGTASVVCLLNNFYPREAKVQWKVDNALQSGNSQESVTEQDSKDSTYSLSSTLTLSKADYEKHKVYACEVTHQGLSSPVTKSFNRGEC
B4: CE115HA000 A99F one-arm antibody (antibody, human IgG1, kappa, L234A L235A, N297A, name in Kabat numbering)
heavy: QVQLVESGGGVVQPGRSLRLSCAASGFTFSNAWMHWVRQAPGKGLEWVAQIKAKSNNYATYYAESVKGRFTISRDDSKNSLYLQMNSLKTEDTAVYYCRYVHYGFYYGVDAWGQGTTVTVSSASTKGPSVFPLAPSSKSTSGGTAALGCLVKDYFPEPVTVSWNSGALTSGVHTFPAVLQSSGLYSLSSVVTVPSSSLGTQTYICNVNHKPSNTKVDKKVEPKSCDKTHTCPPCPAPEAAGGPSVFLFPPKPKDTLMISRTPEVTCVVVDVSHEDPEVKFNWYVDGVEVHNAKTKPREEQYASTYRVVSVLTVLHQDWLNGKEYKCKVSNKALPAPIEKTISKAKGQPREPQVYTLPPSRCELTKNQVSLSCAVKGFYPSDIAVEWESNGQPENNYKTTPPVLDSDGSFFLVSKLTVDKSRWQQGNVFSCSVMHEALHNHYTQKSLSLSPDYKDDDDK
chain: EPKSSDKTHTCPPCPAPELLGGPSVFLFPPKPKDTLMISRTPEVTCVVVDVSHEDPEVKFNWYVDGVEVHNAKTKPREEQYNSTYRVVSVLTVLHQDWLNGKEYKCKVSNKALPAPIEKTISKAKGQPREPQVCTLPPSRDELTKNQVSLWCLVKGFYPSDIAVEWESNGQPENNYKTTPPVLDSDGSFFLYSKLTVDKSRWQQGNVFSCSVMHEALHNRYTQKSLSLSP
light: DIVMTQSPLSLPVTPGEPASISCRSSQSLVHSNRNTYLHWYQQKPGQAPRLLIYKVSNRFSGVPDRFSGSGSGTDFTLKISRVEAEDVGVYYCGQGTQVPYTFGQGTKLEIKRTVAAPSVFIFPPSDEQLKSGTASVVCLLNNFYPREAKVQWKVDNALQSGNSQESVTEQDSKDSTYSLSSTLTLSKADYEKHKVYACEVTHQGLSSPVTKSFNRGEC
B5: CE115HA000 A99D one-arm antibody (antibody, human IgG1, kappa, L234A L235A, N297A, name in Kabat numbering)
heavy: QVQLVESGGGVVQPGRSLRLSCAASGFTFSNAWMHWVRQAPGKGLEWVAQIKAKSNNYATYYAESVKGRFTISRDDSKNSLYLQMNSLKTEDTAVYYCRYVHYGDYYGVDAWGQGTTVTVSSASTKGPSVFPLAPSSKSTSGGTAALGCLVKDYFPEPVTVSWNSGALTSGVHTFPAVLQSSGLYSLSSVVTVPSSSLGTQTYICNVNHKPSNTKVDKKVEPKSCDKTHTCPPCPAPEAAGGPSVFLFPPKPKDTLMISRTPEVTCVVVDVSHEDPEVKFNWYVDGVEVHNAKTKPREEQYASTYRVVSVLTVLHQDWLNGKEYKCKVSNKALPAPIEKTISKAKGQPREPQVYTLPPSRCELTKNQVSLSCAVKGFYPSDIAVEWESNGQPENNYKTTPPVLDSDGSFFLVSKLTVDKSRWQQGNVFSCSVMHEALHNHYTQKSLSLSPDYKDDDDK
chain: EPKSSDKTHTCPPCPAPELLGGPSVFLFPPKPKDTLMISRTPEVTCVVVDVSHEDPEVKFNWYVDGVEVHNAKTKPREEQYNSTYRVVSVLTVLHQDWLNGKEYKCKVSNKALPAPIEKTISKAKGQPREPQVCTLPPSRDELTKNQVSLWCLVKGFYPSDIAVEWESNGQPENNYKTTPPVLDSDGSFFLYSKLTVDKSRWQQGNVFSCSVMHEALHNRYTQKSLSLSP
light: DIVMTQSPLSLPVTPGEPASISCRSSQSLVHSNRNTYLHWYQQKPGQAPRLLIYKVSNRFSGVPDRFSGSGSGTDFTLKISRVEAEDVGVYYCGQGTQVPYTFGQGTKLEIKRTVAAPSVFIFPPSDEQLKSGTASVVCLLNNFYPREAKVQWKVDNALQSGNSQESVTEQDSKDSTYSLSSTLTLSKADYEKHKVYACEVTHQGLSSPVTKSFNRGEC
B6: CE115HA000 A60D one-arm antibody (antibody, human IgG1, kappa, L234A L235A, N297A, name in Kabat numbering)
heavy: QVQLVESGGGVVQPGRSLRLSCAASGFTFSNAWMHWVRQAPGKGLEWVAQIKAKSNNYATYYDESVKGRFTISRDDSKNSLYLQMNSLKTEDTAVYYCRYVHYGAYYGVDAWGQGTTVTVSSASTKGPSVFPLAPSSKSTSGGTAALGCLVKDYFPEPVTVSWNSGALTSGVHTFPAVLQSSGLYSLSSVVTVPSSSLGTQTYICNVNHKPSNTKVDKKVEPKSCDKTHTCPPCPAPEAAGGPSVFLFPPKPKDTLMISRTPEVTCVVVDVSHEDPEVKFNWYVDGVEVHNAKTKPREEQYASTYRVVSVLTVLHQDWLNGKEYKCKVSNKALPAPIEKTISKAKGQPREPQVYTLPPSRCELTKNQVSLSCAVKGFYPSDIAVEWESNGQPENNYKTTPPVLDSDGSFFLVSKLTVDKSRWQQGNVFSCSVMHEALHNHYTQKSLSLSPDYKDDDDK
chain: EPKSSDKTHTCPPCPAPELLGGPSVFLFPPKPKDTLMISRTPEVTCVVVDVSHEDPEVKFNWYVDGVEVHNAKTKPREEQYNSTYRVVSVLTVLHQDWLNGKEYKCKVSNKALPAPIEKTISKAKGQPREPQVCTLPPSRDELTKNQVSLWCLVKGFYPSDIAVEWESNGQPENNYKTTPPVLDSDGSFFLYSKLTVDKSRWQQGNVFSCSVMHEALHNRYTQKSLSLSP
light: DIVMTQSPLSLPVTPGEPASISCRSSQSLVHSNRNTYLHWYQQKPGQAPRLLIYKVSNRFSGVPDRFSGSGSGTDFTLKISRVEAEDVGVYYCGQGTQVPYTFGQGTKLEIKRTVAAPSVFIFPPSDEQLKSGTASVVCLLNNFYPREAKVQWKVDNALQSGNSQESVTEQDSKDSTYSLSSTLTLSKADYEKHKVYACEVTHQGLSSPVTKSFNRGEC

Each binder was assayed against T1, CD3 epsilon homodimer protein (UniProt P07766 23-126) (assay: SPR (Biacore T200), CD3 epsilon homodimer on CM4 chip, one-arm antibody as analyte, 25 C;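 also: homodimer attached to the sensor surface via amine coupling, HBS-EP+ used as running buffer during binding runs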).
T1 construct: immobilized on Sensor chip CM4 by amine coupling; also called CD3 (CD3 epsilon)
T1 sequence (P07766 23-126): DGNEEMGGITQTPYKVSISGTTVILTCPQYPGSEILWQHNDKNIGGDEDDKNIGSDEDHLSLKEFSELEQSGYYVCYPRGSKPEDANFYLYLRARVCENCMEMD

**Q.** With B1 as the binder, how does the “ratio of amounts bound (altered form / CE115HA000)” value read?
**A.** 0.66

**Q.** Which “ratio of amounts bound (altered form / CE115HA000)” value does the source give for B2 here?
**A.** 1.48

**Q.** For B3, which “ratio of amounts bound (altered form / CE115HA000)” value is on record?
**A.** 0.94

**Q.** For B4, which “ratio of amounts bound (altered form / CE115HA000)” value is on record?
**A.** 1.43

**Q.** With B5 as the binder, how does the “ratio of amounts bound (altered form / CE115HA000)” value read?
**A.** 0.28

**Q.** B6 was tested. Which “ratio of amounts bound (altered form / CE115HA000)” value did it give?
**A.** 0.99
